# Assay results from paper PMC11257959.
# Tested on: NG-RYBP R47A/R53A/R56A (Homo sapiens)
# Assay: EMSA
# Conditions: apparent Kd, n=3; value assigned by fourfold loss; H2A K119 monoubiquitinated histone; DNA unmodified; EMSA: 25 mM Tris-HCl pH 7.5, 50 mM NaCl, 0.05% Tween 20, 5 mM MgCl2, 4% glycerol, 0.2 nM nucleosome, 10 min on ice, 1% agarose 0.4x TBE; cryo-EM binding: 50 mM …
substance,measurement,value
"NucH2Aub1 (EMSA, 201 bp 601)",Kd,0.01 µM
